Test results as given in patent US12031981B2, “Method for electronic detection and quantification of antibodies” (Arizona Board of Regents on behalf of Arizona State …, priority 2018, dated 2024).

Target: RGD peptide
Assay: Single molecule conductance of integrin binding RGD peptide on electrodes
Conditions: one ligand binding site

Sequence of RGD peptide (P06756 31-889 limits assumed): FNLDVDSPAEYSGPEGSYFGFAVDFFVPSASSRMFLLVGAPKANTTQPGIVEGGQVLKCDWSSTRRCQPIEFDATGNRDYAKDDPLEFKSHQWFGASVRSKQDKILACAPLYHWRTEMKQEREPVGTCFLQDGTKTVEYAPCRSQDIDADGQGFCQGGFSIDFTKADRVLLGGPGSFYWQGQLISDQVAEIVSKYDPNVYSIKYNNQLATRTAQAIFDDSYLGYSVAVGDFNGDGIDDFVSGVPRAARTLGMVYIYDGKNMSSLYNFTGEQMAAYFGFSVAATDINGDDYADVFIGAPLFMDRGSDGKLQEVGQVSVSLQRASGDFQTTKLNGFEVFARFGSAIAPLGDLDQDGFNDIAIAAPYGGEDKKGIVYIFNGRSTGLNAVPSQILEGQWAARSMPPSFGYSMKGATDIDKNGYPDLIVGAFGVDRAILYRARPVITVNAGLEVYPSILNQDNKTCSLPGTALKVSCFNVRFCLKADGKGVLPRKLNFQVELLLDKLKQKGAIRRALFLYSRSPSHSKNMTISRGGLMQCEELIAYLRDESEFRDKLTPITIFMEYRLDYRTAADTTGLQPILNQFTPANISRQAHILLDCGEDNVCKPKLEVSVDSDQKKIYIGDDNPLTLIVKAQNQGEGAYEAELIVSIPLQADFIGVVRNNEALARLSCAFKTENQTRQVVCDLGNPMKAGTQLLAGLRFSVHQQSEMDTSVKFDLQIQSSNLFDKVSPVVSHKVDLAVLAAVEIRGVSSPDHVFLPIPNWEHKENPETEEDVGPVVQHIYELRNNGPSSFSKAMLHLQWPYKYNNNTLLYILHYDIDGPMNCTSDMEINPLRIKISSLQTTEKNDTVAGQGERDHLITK
Sequence of RGD peptide (P06756 891-1048 partner limits assumed): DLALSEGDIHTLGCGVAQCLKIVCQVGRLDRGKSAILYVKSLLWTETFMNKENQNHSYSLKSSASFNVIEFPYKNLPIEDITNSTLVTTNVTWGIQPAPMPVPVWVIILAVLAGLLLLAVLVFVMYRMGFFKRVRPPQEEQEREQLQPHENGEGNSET
Sequence of RGD peptide (P05106 27-788, further chain): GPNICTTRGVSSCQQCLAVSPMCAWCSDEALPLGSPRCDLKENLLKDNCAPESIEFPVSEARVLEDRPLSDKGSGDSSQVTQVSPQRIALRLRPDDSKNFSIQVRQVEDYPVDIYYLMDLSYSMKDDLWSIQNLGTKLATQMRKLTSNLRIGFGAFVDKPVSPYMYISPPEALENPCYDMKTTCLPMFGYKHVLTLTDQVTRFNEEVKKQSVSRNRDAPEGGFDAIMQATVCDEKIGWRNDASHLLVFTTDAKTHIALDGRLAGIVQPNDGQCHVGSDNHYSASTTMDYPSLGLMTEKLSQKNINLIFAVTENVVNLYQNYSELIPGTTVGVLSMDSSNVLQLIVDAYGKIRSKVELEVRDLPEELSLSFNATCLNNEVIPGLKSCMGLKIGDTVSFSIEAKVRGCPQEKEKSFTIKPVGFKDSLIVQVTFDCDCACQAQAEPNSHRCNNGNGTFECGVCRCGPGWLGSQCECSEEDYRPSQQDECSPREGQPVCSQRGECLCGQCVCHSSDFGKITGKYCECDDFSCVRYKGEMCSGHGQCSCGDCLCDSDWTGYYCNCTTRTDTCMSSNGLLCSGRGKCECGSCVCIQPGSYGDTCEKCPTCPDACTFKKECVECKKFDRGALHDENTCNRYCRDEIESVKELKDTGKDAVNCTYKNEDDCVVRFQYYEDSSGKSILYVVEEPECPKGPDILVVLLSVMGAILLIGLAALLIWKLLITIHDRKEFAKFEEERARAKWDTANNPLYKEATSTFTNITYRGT

In the case of “Integrin: αvβ3 integrin binding RGD peptide; only one ligand binding site”, the “conductance G, single peak of distribution” value is reported as 0.3 nS.
